Experimental data from PMC4860257 (Structure (London, England : 1993), 2016).
Positions count from the first letter of the chain named. Names and notes keep the numbering of the source.

B1: talin R7R8R9 (residues 1357-1822), wild type, His tag removed, as crystallised (domain or fragment, UniProt P26039 1357-1822, looked up)
chain: APGQKECDNALRQLETVRELLENPVQPINDMSYFGCLDSVMENSKVLGEAMTGISQNAKNGNLPEFGDAIATASKALCGFTEAAAQAAYLVGVSDPNSQAGQQGLVEPTQFARANQAIQMACQSLGEPGCTQAQVLSAATIVAKHTSALCNSCRLASARTANPTAKRQFVQSAKEVANSTANLVKTIKALDGDFTEENRAQCRAATAPLLEAVDNLSAFASNPEFSSVPAQISPEGRAAMEPIVISAKTMLESAGGLIQTARALAVNPRDPPRWSVLAGHSRTVSDSIKKLITSMRDKAPGQLECETAIAALNSCLRDLDQASLAAVSQQLAPREGISQEALHTQMLTAVQEISHLIEPLASAARAEASQLGHKVSQMAQYFEPLTLAAVGAASKTLSHPQQMALLDQTKTLAESALQLLYTAKEAGGNPKQAAHTQEALEEAVQMMTEAVEDLTTTLNEAASAAG
B2: GST-tagged talin F2F3 domains (residues 196-405) (domain or fragment, UniProt P26039 196-405, looked up)
chain: KFFYSDQNVDSRDPVQLNLLYVQARDDILNGSHPVSFDKACEFAGFQCQIQFGPHNEQKHKAGFLDLKDFLPKEYVKQKGERKIFQAHKNCGQMSEIEAKVRYVKLARSLKTYGVSFFLVKEKMKGKNKLVPRLLGITKECVMRVDEKTKEVIQEWSLTNIKRWAASPKSFTLDFGDYQDGYYSVQTTEGEQIAQLIAGYIDIILKKKKS
B3: His-tagged talin R7R8R9-2Y (E1794Y/E1797Y) (domain or fragment, UniProt P26039 1357-1822, looked up)
chain: B1 chain with E438Y, E441Y
B4: His-tagged talin R7R8R9-3Y (E1794Y/E1797Y/Q1801Y) (domain or fragment, UniProt P26039 1357-1822, looked up)
chain: B1 chain with E438Y, E441Y, Q445Y
B5: GST-tagged talin R9 domain (residues 1655-1822), wild type (domain or fragment, UniProt P26039 1655-1822, looked up)
chain: APGQLECETAIAALNSCLRDLDQASLAAVSQQLAPREGISQEALHTQMLTAVQEISHLIEPLASAARAEASQLGHKVSQMAQYFEPLTLAAVGAASKTLSHPQQMALLDQTKTLAESALQLLYTAKEAGGNPKQAAHTQEALEEAVQMMTEAVEDLTTTLNEAASAAG
B6: GST-tagged talin R9-T1812Y (domain or fragment, UniProt P26039 1655-1822, looked up)
chain: B5 chain with T158Y
B7: GST-tagged talin R9-3Y (E1794Y/E1797Y/Q1801Y) (domain or fragment, UniProt P26039 1655-1822, looked up)
chain: B5 chain with E140Y, E143Y, Q147Y

Experiments:
crystal structure = biological target: the molecule itself; assay: crystal structure
[1] = biological target: B4; assay: pull-down
[2] = biological target: His-tagged talin R7R8R9 (residues 1357-1822), wild type (UniProt P26039 1357-1822); assay: pull-down
[3] = biological target: B3; assay: pull-down
SEC-MALS = biological target: the molecule itself; assay: SEC-MALS
[4] = biological target: His-tagged talin F2F3 domains (residues 196-405), wild type (UniProt P26039 196-405); assay: pull-down
[5] = biological target: His-tagged talin F2F3-KKR (K272A/K274A/R277A) (UniProt P26039 196-405, K272A | K274A | R277A); assay: pull-down
[6] = biological target: His-tagged talin F2F3-K322A (UniProt P26039 196-405, K322A); assay: pull-down
[7] = biological target: His-tagged talin F2F3-K324A (UniProt P26039 196-405, K324A); assay: pull-down

Binder: B1
binding result (crystal structure): binds

Binder: B2
binding result [1]: binds
binding result [2]: binds
binding result [3]: binds

Binder: B3
stoichiometry N (SEC-MALS): 2

Binder: B4
stoichiometry N (SEC-MALS): 2

Binder: B5
binding result [4]: binds
binding result [5]: binds
binding result [6]: binds
binding result [7]: binds

Binder: B6
binding result [4]: binds

Binder: B7
binding result [4]: binds
